Measured values from patent US20050170502A1, “Methods for maintaining hepatocytes in culture and for differentiating embryonic stem cells along a hepatocyte lineage” (REGENTS OF THE UNIVERSITY OF CALIFORNIA, priority 2003, published 2005).

System: mouse ES cells (ES-D3)
Assay: Hepatocyte-specific gene expression in differentiated mouse ES cells, real-time quantitative RT-PCR
Conditions: mouse ES cells, IMDM, collagen type I, day 33, FIG. 2A
Procedure: Mouse ES cell line ES-D3 and mouse STO fibroblasts were obtained from the American Type Culture Collection, Manassas, Va. ES cells were expanded on STO fibroblast feeder layers in Dulbecco's modified Eagle's medium (DMEM) (unless specified, cell culture supplies were from Invitrogen, Carlsbad, Calif.) containing 15% fetal bovine serum (FBS), 1 mM L-glutamine, 60 μM non-essential amino acid solution, 0.1 mM 2-mercaptoethanol, 10 mM HEPES (Sigma-Aldrich, Saint Louis, Mo.), 1400 U/ml leukemia inhibitory factor (LIF) (Chemicon International, Temecula, Calif.), and penicillin/streptomycin at standard concentrations. To prepare feeder layers, STO fibroblasts were cultured until confluent and treated with 10 μg/ml mitomycin C (Sigma-Aldrich) for 4 hours. […]
Total RNA was extracted with RNeasy Mini Kit (Qiagen, Valencia, Calif.). Real time quantitative RT-PCR was employed for the determination of gene expression as described in detail previously by our group (Wege, H. et al., Gastroenterology 124:432-444 (2003)). […] Relative mouse or human gene expression analysis (ΔΔCT) was performed by real-time quantitative PCR with the ABI Prism 7700 Sequence Detection System and SYBR PCR Green Master Mix or TaqMan PCR Master Mix (Applied Biosystems, Foster City, Calif.). […] Normalized expression of hepatocyte-specific genes was compared to levels detected in primary adult mouse or human hepatocytes.

B1: OnM: oncostatin M (protein, UniProt P13725 26-221, looked up)
Oncostatin-M: AAIGSCSKEYRVLLGQLQKQTDLMQDTSRLLDPYIRIQGLDVPKLREHCRERPGAFPSEETLRGLGRRGFLQTLNATLGCVLHRLADLEQRLPKAQDLERSGLNIEDLEKLQMARPNILGLRNNIYCMAQLLDNSDTAEPTKAGRGASQPPTPTPASDAFQRKLEGCRFLHGYHRFMHSVGRVFSKWGESPNRSRR
albumin gene expression (effect of individual growth and differentiation factors): only minor positive or even negative effects
